Test results as given in publication PMC2747730 (Biochemistry, 2008).

Molecular target: the molecule itself
Test: PFG-NMR translational diffusion

B1: Sml1 (suppressor of Mec1 lethality), full length wild type (natural protein, S. cerevisiae, UniProt Q04964 1-104, looked up)
chain: MQNSQDYFYAQNRCQQQQAPSTLRTVTMAEFRRVPLPPMAEVPMLSTQNSMGSSASASASSLEMWEKDLEERLNSIDHDMNNNKFGSGELKSMFNQGKVEEMDF
Work on B1 yielded a Kd of 93 ± 25 µM.
